Laboratory results as given in patent US20200113912A1, “Methods and Compositions for the Treatment of Disease with Immune Stimulatory Conjugates” (Silverback Therapeutics, Inc., priority 2018, published 2020).

How the values were obtained:
[1] = test system: BMDM + SK-BR-3 (HER2pos); assay: mTNFα from bone marrow derived macrophages co-cultured with SK-BR-3; format: cell-based, mouse; conditions: 24 hours; conjugate 100-0.001 nM, payload 1000-0.001 nM; HER2pos SK-BR-3
Procedure: (§1) The ability of an anti-HER2-TLR7 conjugate to specifically activate mouse macrophages when bound to tumor cells by HER2 was assessed in vitro as follows. Bone marrow cells were harvested from BALB/cJ mouse femurs and tibias using a 27-gauge needle attached to a 3 mL syringe filled with growth media (DMEM supplemented with 10% Fetal Bovine Serum, 1 mM Sodium Pyruvate, 1× GlutaMAX-1, 1× Non-Essential Amino Acids, 10 mM HEPES and 0.5% Penicillin/Streptomycin). Bone marrow cells were centrifuged, and RBC were lysed before being counted and resuspended at a concentration 5×10^5/mL in growth media. Ten mL of cell suspension was placed in 10 cm dishes and 20 ng/mL murine macrophage-colony-stimulating factor (mM-CSF) was added. […] Bone marrow derived macrophage cells lines (BMDM) and tumor cell lines SK-BR-3 (HER2pos) or MDA-MB-468 (HER2neg) were removed from plates with Accutase cell detachment solution and counted. […]
(§2) After culture, supernatants were collected and frozen at −80° C. until cytokine analysis was performed. Murine TNFα (mTNFα) levels in the supernatant were determined by mTNFα ELISA Kit (BioLegend) and read on an Envision Plate Reader (Perkin Elmer, Waltham, Mass.) according to manufacturer's instructions. mTNFα levels were then graphed using GraphPad Prism 7.01 software (GraphPad Software, San Diego, Calif.) and EC50 values were generated using non-linear regression curve fit.

[2] = test system: BMDM + MDA-MB-468 (HER2neg); assay: mTNFα from bone marrow derived macrophages co-cultured with MDA-MB-468; format: cell-based, mouse; conditions: 24 hours; conjugate 100-0.001 nM, payload 1000-0.001 nM; HER2neg MDA-MB-468
Procedure: as §1, §2

[3] = 10 μg per mouse, 5 minutes following second dose of HER2-TLR7 5 mg/kg
Procedure: Rectal temperatures and clinical scores were assessed as previously shown.

[4] = Repeat-dose intravenous administration in cynomolgus monkey; format: in vivo
Procedure: The monkey used in this study was purpose-bred, treatment-naïve, and housed and treated at Charles River Laboratories in Reno, Nev., in accordance with US FDA GLP regulations. The target age and weight of the animal at time of dosing was 2 to 4 years and 2.5 to 3.5 kg, respectively, and the animal used on study was female. HER2-TLR8 was evaluated on a repeat dose schedule as follows: 1 mg/kg was dosed on Day 1, followed by a 7.5 mg/kg dose administered one week later on Day 8 and a third 7.5 mg/kg dose administered three weeks later on Day 29. After each dose, the animal was observed cage-side for clinical signs and symptoms associated with dosing. […] This animal was euthanized due to the rapid onset of clinical signs of pale mucus membranes and face, hunched posture, decreased activity, hypothermia (as assessed by being cool to the touch), and labored, shallow breathing. These clinical signs presented within 2.5 hour following dosing on Day 29.

[5] = Repeat-dose subcutaneous administration in cynomolgus monkey; format: in vivo; conditions: SC
Procedure: The monkey used in this study was purpose-bred, treatment-naïve, and housed and treated at Charles River Laboratories in Reno, Nev., in accordance with US FDA GLP regulations. The target age and weight of the animal at time of dosing was 2 to 4 years and 2.5 to 3.5 kg, respectively, and the animal used on study was female. HER2-TLR8 was evaluated on a repeat dose schedule as follows: 2 mg/kg dose was subcutaneously administered on a Q2W dosing schedule over 4 dosing cycles, 6 mg/kg was subcutaneously administered on a Q3W dosing schedule over 4 dosing cycles and 12 mg/kg was subcutaneously administered on a Q3W dosing schedule over 4 dosing cycles. After each dose, the animal was observed cage-side for clinical signs and symptoms associated with dosing.

[6] = test system: C-reactive protein (CRP); assay: Pharmacodynamic response (CRP) after repeat SC dosing in non-human primates; format: in vivo, cynomolgus monkey; conditions: repeat-dose SC, 2, 6 and 12 mg/kg
Text: Blood samples were collected by venous puncture at various timepoints and analyzed for blood chemistries, including C-reactive protein (CRP), using a standard blood analyzer.

[7] = Single-dose pharmacokinetic profile in cynomolgus monkey (serum ELISA); format: in vivo
Procedure: The pharmacokinetic profile of a single dose of HER2-TLR8 administered subcutaneously at 2, 6, or 12 mg/kg or intravenously at 7.5 mg/kg in cynomolgus monkey was studied. Blood was collected by venous puncture at a series of timepoints pre and post-dosing. Serum was prepared and HER2-TLR8 was measured by an ELISA assay in which serum samples were added to an assay plate coated with recombinant HER2 and HER2-TLR8 was detected using a labelled antibody directed against the TLR8 payload.

CCOCc1nc2c(N)nc3ccccc3c2n1CC(C)(C)OCCNC(=O)C(C)(C)N [TLR7 payload compound]
activation of macrophages (mTNFα in supernatant) [1]: capable of potently activating the macrophages in the presence of both cell lines | activation of macrophages (mTNFα in supernatant) [2]: capable of potently activating the macrophages in the presence of both cell lines

CNC[C@H](O)c1ccc(O)c(O)c1 [epinephrine]
effect on toxicity of second IV dose of HER2-TLR7 [3]: mitigates the toxicity

CCCN(CCC)C(=O)C1=Cc2ccc(C(=O)Nc3cnc4c(c3)CN(C(=O)OCc3ccc(NC(=O)[C@H](CCCNC(N)=O)NC(=O)[C@@H](NC(=O)CCCCCN5C(=O)C=CC5=O)C(C)C)cc3)CC4)cc2N=C(N)C1 [HER2-TLR8]
anaphylaxis-like response after the first two doses ([4]; IV bolus, 1 mg/kg Day 1 and 7.5 mg/kg Day 8): did not produce an anaphylaxis-like response | outcome of the third intravenous dose ([4]; IV bolus, 7.5 mg/kg Day 29): resulted in mortality | time to presentation of clinical signs following dosing ([4]; third IV dose, 7.5 mg/kg Day 29): ≤ 2.5 h | tolerability ([5]; 2 mg/kg Q2W, 6 mg/kg Q3W, 12 mg/kg Q3W, 4 dosing cycles): well-tolerated at all dose levels and through all dosing cycles | clinical anaphylaxis-like signs or symptoms ([5]; first or repeat dose at any dose level (2, 6, 12 mg/kg)): No clinical, anaphylaxis-like signs or symptoms were observed | C-reactive protein (CRP) in blood [6]: consistent, modest elevation of C-reactive protein (CRP) with each dosing cycle | AUC ([7]; 7.5 mg/kg, IV, 7.5 mpk): 3770 µg·h/mL | AUC ([7]; subcutaneous, 2 mg/kg, SubC, 2 mpk): 714 µg·h/mL | AUC ([7]; subcutaneous, 6 mg/kg, SubC, 6 mpk): 2400 µg·h/mL | AUC ([7]; subcutaneous, 12 mg/kg, SubC, 12 mpk): 3650 µg·h/mL
